# The RNAGym collection of RNA variant scans (doi:10.1101/gr.219683.116)
# B1: mRNA-splicing (parent)
# chain: AGUUGCUGCUGGGAGCUCCAGCACAGUGAAAUGGACAGAAGGGCAGAGCAA
# Variants of: B1
# Assay: exon inclusion enrichment index; higher = more inclusion; WT1 exon 5 minigene, HEK293
row,Variant,exon inclusion enrichment index
1,G5U G8U C9U U10A,0.00828
2,G5U G8U C9U U10C,0.561
3,G5U G8U C9U U10G,0.095
4,G5U G8U C9U G38A A39G,0.151
5,G5U G8U C9U G38A A39C,0.0724
6,G5U G8U C9U G38A A39U,0.00274
7,G5U U7A C9A U10A,0.286
8,G5U G8U C9U G28C,0.0778
9,G5U G8U C9U G28A,0.0119
10,G5U G8U C9U G28U,0.0111
11,C6A U7A C9A U10A A20C G21A,0.223
12,C6A U7A C9A U10A A20C G21C,0.209
13,C6A U7A C9A U10A A20C G21U,0.286
14,C6A U7A C9A U10A A20G G21A,1.2
15,G5U G8U C9U U10A G11C,0.155
16,G5U G8U C9U U10A G11U,0.0867
17,G5U G8U C9U U10A G11A,0.0324
18,G5U G8U C9U G33U,0.0674
19,G5U G8U C9U G33C,0.254
20,G5U G8U C9U G33A,0.00649
21,C6A G8C C9A U10A,0.392
22,C6A G8C C9A U10C,1.49
23,G5U G8U C9U G42A G43U,1.46
24,G5U G8U C9U G42A G43A,1.46

row,Variant,exon inclusion enrichment index
1,G5U G8U C9U G42A G43C,1.72
2,C6A U7A C9A U10A A14U G15A,0.217
3,C6A U7A C9A U10A A14U G15U,0.295
4,C6A U7A C9A U10A A14U G15C,0.336
5,G5U G8U C9U G15A C16A,0.0496
6,G5U G8U C9U G15A C16U,0.0203
7,G5U G8U C9U G15A C16G,0.043
8,G5U G8U C9U U17A C18G,0.0888
9,G5U G8U C9U U17A C18A,0.0626
10,G5U G8U C9U U17A C18U,0.0627
11,G5U G8U C9U G15U C16U,0.0287
12,G5U G8U C9U G15U C16G,0.064
13,G5U G8U C9U G15U C16A,0.0344
14,G5U G8U C9U G11U G12U,0.00578
15,G5U G8U C9U G11U G12C,0.0157
16,G5U G8U C9U G11U G12A,0.00214
17,C6A U7A C9A U10A A20C,0.58
18,C6A U7A C9A U10A A20G,1.05
19,C6A U7A C9A U10A A14G G15C,0.529
20,C6A U7A C9A U10A A14G G15A,0.841
21,C6A U7A C9A U10A A14G G15U,0.274
22,G5U G8U C9U G34U A35G,0.0289
23,G5U G8U C9U G34U A35C,0.0387
24,G5U G8U C9U G34U A35U,0.0186

row,Variant,exon inclusion enrichment index
1,G5U U7C G8A U10C,1.83
2,G5U U7C G8A U10A,0.168
3,G5U G8U C9U G28C A29C,0.115
4,G5U G8U C9U G28C A29G,0.342
5,G5U G8U C9U G28C A29U,0.0407
6,G5U G8U C9U C24A A25U,0.149
7,G5U G8U C9U C24A A25C,0.849
8,G5U G8U C9U C24A A25G,0.175
9,C6A G8U C9U,0.134
10,G5U U7G G8A C9U,1.04
11,G5U U7G G8C C9U,1.58
12,C6A U7A C9A U10A,0.801
13,G5U G8U C9U G11U,0.144
14,G5U G8U C9U G11C,0.297
15,G5U G8U C9U G11A,0.0224
16,G5U U7G C9A,2.09
17,G5U U7G C9U,0.575
18,G5U G8U C9U G11C G12U,0.0163
19,G5U G8U C9U G11C G12A,0.0135
20,G5U G8U C9U G11C G12C,0.0331
21,G5U G8U C9U C19A A20U,0.0164
22,G5U G8U C9U C19A A20G,0.00554
23,G5U G8U C9U U32C G33C,0.216
24,G5U G8U C9U U32C G33U,0.0499

row,Variant,exon inclusion enrichment index
1,G5U G8U C9U U32C G33A,0.0483
2,G5U G8U C9U G12A G13C,0.0118
3,G5U G8U C9U G12A G13A,0.0133
4,G5U G8U C9U G12A G13U,0.000463
5,G5U G8U C9U G43U C44G,0.112
6,G5U G8U C9U G43U C44A,0.0152
7,G5U G8U C9U G43U C44U,0.0283
8,G5U G8U C9U U10G G11C,0.742
9,G5U G8U C9U U10G G11U,0.498
10,G5U G8U C9U U10G G11A,0.429
11,G5U U7C C9U,0.916
12,G5U G8U C9U G46U,0.0708
13,G5U G8U C9U G46C,0.148
14,G5U G8U C9U G46A,0.192
15,G5U G8U C9U C24U A25U,0.127
16,G5U G8U C9U C24U A25C,0.987
17,G5U G8U C9U C24U A25G,0.363
18,G5U G8U C9U U27G,0.0266
19,G5U G8U C9U U27A,0.208
20,G5U G8U C9U U27C,0.478
21,G5U U7C G8C C9U,0.364
22,G5U G8U C9U G43A C44A,0.667
23,G5U G8U C9U G43A C44G,0.749
24,G5U G8U C9U G43A C44U,0.177

row,Variant,exon inclusion enrichment index
1,G5U G8U C9U G11A G12A,0.00894
2,G5U G8U C9U G11A G12U,0.00501
3,G5U G8U C9U G11A G12C,0.0306
4,G5U G8U C9U G34A,0.0562
5,G5U G8U C9U G34C,0.0201
6,G5U G8U C9U G34U,0.0349
7,G5U G8U C9U C19U,0.00467
8,G5U G8U C9U C19G,0.0649
9,G5U G8U C9U U17C C18G,0.151
10,G5U G8U C9U U17C C18U,0.0755
11,G5U G8U C9U U17C C18A,0.0484
12,G5U G8U C9U G42U G43A,0.451
13,G5U G8U C9U G42U G43U,0.409
14,G5U G8U C9U G42U G43C,0.0971
15,G5U G8U C9U G33U G34A,0.00858
16,G5U G8U C9U G33U G34U,0.00702
17,G5U G8U C9U G33U G34C,0.0164
18,G5U G8U C9U G13U,0.00294
19,G5U G8U C9U G13C,0.0102
20,G5U G8U C9U G13A,0.0771
21,G5U G8U C9U G12C G13U,0.0014
22,G5U G8U C9U G12C G13C,0.00507
23,G5U G8U C9U G12C G13A,0.0253
24,G5U U7A C9U,0.173

row,Variant,exon inclusion enrichment index
1,G5U G8U C9U G38U A39C,0.088
2,G5U G8U C9U G38U A39U,0.00101
3,G5U G8U C9U G38U A39G,0.0405
4,G5U G8U C9U C24U,0.0331
5,G5U G8U C9U C24G,0.199
6,G5U G8U C9U C24A,0.116
7,G5U U7A G8C C9U,0.582
8,G5U G8U C9U G46C A47G,0.306
9,G5U G8U C9U G46C A47U,0.15
10,G5U G8U C9U G46C A47C,0.234
11,G5U G8U C9U U32A,0.11
12,G5U G8U C9U U32C,0.344
13,G5U G8U C9U U32G,0.00207
14,G5U U7A G8A C9U,0.454
15,C6A,0.079
16,G5U G8U C9U G42C G43A,0.494
17,G5U G8U C9U G42C G43C,0.708
18,G5U G8U C9U G42C G43U,0.515
19,G5U G8U C9U C24G A25G,0.0358
20,G5U G8U C9U C24G A25U,0.208
21,G5U G8U C9U C24G A25C,0.663
22,G5U G8U C9U G41U G42U,0.11
23,G5U G8U C9U G41U G42A,0.0453
24,G5U G8U C9U G41U G42C,0.47

row,Variant,exon inclusion enrichment index
1,G5U G8U C9U G42A,0.667
2,G5U G8U C9U G42U,0.227
3,G5U G8U C9U G42C,0.786
4,G5U G8U U10C,1.8
5,G5U G8U U10A,0.444
6,G5U G8U U10G,1.8
7,G5U U7C G8A C9U,0.504
8,G5U G8U C9U C44G A45U,0.0543
9,G5U G8U C9U C44G A45G,0.0217
10,G5U G8U C9U C44G A45C,0.346
11,G5U U7G G8U C9U,0.893
12,C6A U7A C9A G11C,3.26
13,C6A U7A C9A G11U,2.86
14,C6A U7A C9A G11A,0.721
15,G5U G8U C9U G15U,0.107
16,G5U G8U C9U G15A,0.0439
17,G5U G8U C9U G15C,0.196
18,G5U G8U C9U G43A,0.671
19,G5U G8U C9U G43C,0.199
20,G5U G8U C9U G43U,0.16
21,G5U G8U C9U C22U A23G,0.109
22,G5U G8U C9U C22U A23C,0.0522
23,G5U G8U C9U C22U A23U,0.0443
